This is an account of results in publication PMC6277001 (Molecular cancer research : MCR, 2018).

This experiment has as its target T1, GST-β-catenin^4A (UniProt P35222 1-781, S33A | S37A | T41A | S45A).
T1 sequence: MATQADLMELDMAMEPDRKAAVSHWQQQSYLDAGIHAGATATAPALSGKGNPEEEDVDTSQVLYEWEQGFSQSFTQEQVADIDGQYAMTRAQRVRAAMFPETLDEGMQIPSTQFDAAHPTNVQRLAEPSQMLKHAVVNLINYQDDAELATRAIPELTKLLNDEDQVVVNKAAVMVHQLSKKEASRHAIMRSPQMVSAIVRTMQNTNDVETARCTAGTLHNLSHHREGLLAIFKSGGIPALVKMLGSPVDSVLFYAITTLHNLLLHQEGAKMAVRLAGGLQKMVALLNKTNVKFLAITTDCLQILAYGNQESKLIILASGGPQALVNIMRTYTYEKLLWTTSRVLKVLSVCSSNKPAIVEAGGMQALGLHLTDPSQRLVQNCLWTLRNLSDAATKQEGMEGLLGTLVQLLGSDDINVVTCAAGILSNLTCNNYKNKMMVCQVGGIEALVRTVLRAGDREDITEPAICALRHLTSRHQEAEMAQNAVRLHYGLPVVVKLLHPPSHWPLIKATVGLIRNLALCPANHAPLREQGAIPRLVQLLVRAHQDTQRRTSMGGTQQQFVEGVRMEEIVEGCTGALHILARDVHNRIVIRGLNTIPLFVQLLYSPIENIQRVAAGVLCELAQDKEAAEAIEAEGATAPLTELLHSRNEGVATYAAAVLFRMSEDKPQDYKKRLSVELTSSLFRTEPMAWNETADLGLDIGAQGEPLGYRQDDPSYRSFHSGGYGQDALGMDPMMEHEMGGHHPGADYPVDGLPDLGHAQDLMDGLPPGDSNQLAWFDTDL
Nature of the experiment: pull-down.

B1: 6xHis-FLYWCH1 (natural protein)
chain: MPLPEPSEQEGESVKAGQEPSPKPGTDVIPAAPRKPREFSKLVLLTASDQDEDGVGSKPQEVHCVLSLEMAGPATLASTLQILPVEEQGGVVQPALEMPEQKCSKLDAAAPQSLEFLRTPFGGRLLVLESFLYKQEKAVGDKVYWKCRQHAELGCRGRAITRGLRATVMRGHCHAPDEQGLEARRQREKLPSLALPEGLGEPQGPEGPGGRVEEPLEGVGPWQCPEEPEPTPGLVLSKPALEEEEAPRALSLLSLPPKKRSILGLGQARPLEFLRTCYGGSFLVHESFLYKREKAVGDKVYWTCRDHALHGCRSRAITQGQRVTVMRGHCHQPDMEGLEARRQQEKAVETLQAGQDGPGSQVDTLLRGVDSLLYRRGPGPLTLTRPRPRKRAKVEDQELPTQPEAPDEHQDMDADPGGPEFLKTPLGGSFLVYESFLYRREKAAGEKVYWTCRDQARMGCRSRAITQGRRVTVMRGHCHPPDLGGLEALRQREKRPNTAQRGSPGGPEFLKTPLGGSFLVYESFLYRREKAAGEKVYWTCRDQARMGCRSRAITQGRRVMVMRRHCHPPDLGGLEALRQREHFPNLAQWDSPDPLRPLEFLRTSLGGRFLVHESFLYRKEKAAGEKVYWMCRDQARLGCRSRAITQGHRIMVMRSHCHQPDLAGLEALRQRERLPTTAQQEDPEKIQVQLCFKTCSPESQQIYGDIKDVRLDGESQ
Turning to B1, the binding result is given as “binds”.
